# B1: wild-type Archease: Homo sapiens Archease protein (SEQ ID NO: 28), recombinant, enhances RNA ligase activity of HSPC117 (protein, listed as Homo sapiens)
# chain: MAQEEEDVRDYNLTEEQKAIKAKYPPVNRKYEYLDHTADVQLHAWGDTLEEAFEQCAMAMFGYMTDTGTVEPLQTVEVETQGDDLQSLLFHFLDEWLYKFSADEFFIPREVKVLSIDQRNFKLRSIGWGEEFSLSKHPQGTEVKAITYSAMQVYNEENPEVFVIIDI
# Assays:
# [1] = molecular target: T1, FLAG-RTCB, the catalytic subunit of the human tRNA ligase (Homo sapiens, UniProt Q9Y3I0); assay: Assay to monitor Archease function and inhibition of RNA ligase activity (linear intron substrate); format: biochemical; details: FLAG-RTCB from HEK293 cells with His-tagged Archease, GTP or GMPcPP at 0.5 mM
# T1 construct: FLAG; made in house; host or cells: HEK293 cells (FLAG-RTCB)
# Protocol: FIG. 14: Assay to monitor inhibition of RNA ligase activity. […] The linear substrate (second from bottom to top) is converted into a circular product (bottom) or a concatemer (top), which is further circularized (third from bottom to top). Ligation only took place with wild-type Archease and GTP.
# The RNA ligation activity of FLAG-RTCB, the catalytic subunit of the human tRNA ligase, was determined in the presence of wildtype or mutant (D39A) Archease with the addition of GTP or non-hydrolysable GMPcPP (5′-guanylylmethylenebisphosphonate). […] The reaction was carried out with FLAG-RTCB purified from HEK293 cells and hexahistidine tagged wild-type or mutant Archease. Furthermore, GTP or GMPcPP were used at 0.5 mM concentration. A linear intron derived from a radioactively labelled pre-tRNA that was transcribed with T7 polymerase and cleaved with recombinant tRNA endonuclease from Methanocaldococcus jannaschii served as substrate. Cleavage products were resolved on preparative denaturing polyacrylamide gels and the linear intron was eluted overnight and recovered by precipitation. With reference to FIG. 14, FLAG-RTCB and wild-type Archease in the presence of GTP are able to convert the linear substrate (second from bottom to top) into a circular product (bottom) or a concatemer (top), which is further circularized (third from bottom to top). This type of assay can be used to validate candidate inhibitors of the Archease or even the ligase or to screen compound libraries in order to find inhibitory molecules.
# [2] = test system: cleaved Xbp1 RNA minimal substrate; assay: In vitro Xbp1 splicing (exon ligation) assay with Ire1 pre-cleaved Xbp1 RNA; format: biochemical, human; details: addition of recombinant protein
# Description: FIG. 8: The human tRNA ligase HSPC117 and Archease are both required for non-conventional splicing of Xbp1 mRNA during the Unfolded Protein Response (UPR). A) Experimental outline for in vitro splicing assay. B) An internally labeled fragment of Xbp1 mRNA was pre-cleaved with recombinant Ire1 endonuclease and supplemented with buffer or HeLa whole-cell extract (wce) for the indicated time points to allow ligation of exon halves. Formation of splice product is specific to the presence of both Ire1 and cell extract. Lanes marked “unspliced” and “spliced” contain control transcripts to mark the size of the splice product. C) HSPC117 and Archease both contribute to non-conventional splicing. 3′ end labeled Xbp1 was pre-cleaved with Ire1 and supplemented with whole-cell extract from HeLa cells treated with siRNAs as indicated above the lanes. Cell extracts were harvested 72 hrs post transfection. D) Ligase activity for non-conventional splicing resides in HSPC117 but not in Archease. In vitro splicing assay using 3′end labeled Xbp1 carried out using whole cell extract (input) or FLAG-IP from HEK293 cells stably expressing FLAG-HSPC117, FLAG-Archease or FLAG-DDX1. Ligation activity is only found in IPs of integral members of the tRNA ligase complex. E) Non-conventional splicing activity is stimulated by addition of Archease. Splicing assay using 3′ end labeled Xbp1 carried out as above with addition of buffer or recombinant protein as indicated above the lanes. […] Bovine Serum Albumine (BSA) was included as control.
# For the splicing assay RNA was prepared by T7-transcrition from PCR product containing spliced and unspliced form of human Xbp1. Substrates were labelled internally using a-GTP and at the 3′end using ligation to pCp. Substrate was pre-cleaved with recombinant Ire1 for 5 mins in tRNA ligation buffer with subsequent addition of protein extract of FLAG-IP eluate to total volume of 5 μl. Samples were treated with proteinase K and phenol-chloroform extracted prior to loading on 10% PAGE gel.
# Perturbation of normal ER function causes mis- or unfolded proteins to accumulate leading to activation of the unfolded protein response (UPR). One of three UPR pathway inducers in mammals, the ER transmembrane protein Ire1, cleaves the Xbp1 mRNA specifically to remove a 26 nt intron (FIG. 8A). […] None of the additional four components of the tRNA ligase complex were required for ligation in agreement with previous findings (WO 2012/28606). […] The reduced ligation activity seen in Archease-depleted extracts raised the question whether Archease is an RNA ligase or rather acts to stimulate the ligation activity of other ligases. To address this question stable cell lines expressing FLAG-tagged versions of HSPC117, Archease, and DDX1 (a DEAD-box helicase component of the human tRNA ligase complex) were generated and the Xbp1 ligation assay using FLAG-IPs was performed.
# To further address the stimulatory activity of Archease both HSPC117 and Archease were depleted by RNAi and then an Archease rescue-construct containing either WT or MUT Archease was introduced.
# T1 sequence (Q9Y3I0 whole entry): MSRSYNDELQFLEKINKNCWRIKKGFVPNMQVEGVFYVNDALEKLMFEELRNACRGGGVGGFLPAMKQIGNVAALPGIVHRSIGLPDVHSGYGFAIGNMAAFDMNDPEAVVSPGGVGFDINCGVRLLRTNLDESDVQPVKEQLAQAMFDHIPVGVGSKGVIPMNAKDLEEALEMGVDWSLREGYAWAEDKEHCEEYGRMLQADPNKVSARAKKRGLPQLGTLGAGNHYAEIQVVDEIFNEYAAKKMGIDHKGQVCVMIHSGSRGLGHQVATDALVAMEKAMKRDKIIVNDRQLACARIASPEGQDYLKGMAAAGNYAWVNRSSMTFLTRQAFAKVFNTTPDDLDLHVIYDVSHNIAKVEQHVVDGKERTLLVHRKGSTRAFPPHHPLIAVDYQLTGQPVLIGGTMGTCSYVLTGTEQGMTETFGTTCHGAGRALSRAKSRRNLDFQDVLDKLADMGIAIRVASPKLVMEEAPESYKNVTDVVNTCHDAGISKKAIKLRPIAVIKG
# T1 sequence (Q92499 whole entry partner): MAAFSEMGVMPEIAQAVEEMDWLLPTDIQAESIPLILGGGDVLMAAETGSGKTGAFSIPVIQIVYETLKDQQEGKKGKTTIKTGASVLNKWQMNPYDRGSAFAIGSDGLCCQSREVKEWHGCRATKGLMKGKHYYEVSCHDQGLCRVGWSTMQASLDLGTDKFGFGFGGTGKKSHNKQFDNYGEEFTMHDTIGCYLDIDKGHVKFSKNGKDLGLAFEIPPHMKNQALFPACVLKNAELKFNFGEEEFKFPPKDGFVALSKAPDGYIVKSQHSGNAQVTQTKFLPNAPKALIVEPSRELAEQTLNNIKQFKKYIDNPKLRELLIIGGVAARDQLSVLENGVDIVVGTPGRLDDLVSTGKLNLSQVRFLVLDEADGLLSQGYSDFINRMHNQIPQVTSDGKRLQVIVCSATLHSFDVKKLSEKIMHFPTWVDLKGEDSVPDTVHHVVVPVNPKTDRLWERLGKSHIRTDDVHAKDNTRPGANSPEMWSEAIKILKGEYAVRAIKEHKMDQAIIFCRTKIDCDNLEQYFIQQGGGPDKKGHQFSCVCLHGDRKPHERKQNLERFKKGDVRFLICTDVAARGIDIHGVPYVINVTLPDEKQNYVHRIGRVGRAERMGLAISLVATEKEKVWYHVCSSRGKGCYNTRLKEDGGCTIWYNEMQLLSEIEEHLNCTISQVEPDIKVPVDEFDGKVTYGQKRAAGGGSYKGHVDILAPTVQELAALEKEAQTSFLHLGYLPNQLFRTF
# T1 sequence (Q52LJ0 whole entry partner): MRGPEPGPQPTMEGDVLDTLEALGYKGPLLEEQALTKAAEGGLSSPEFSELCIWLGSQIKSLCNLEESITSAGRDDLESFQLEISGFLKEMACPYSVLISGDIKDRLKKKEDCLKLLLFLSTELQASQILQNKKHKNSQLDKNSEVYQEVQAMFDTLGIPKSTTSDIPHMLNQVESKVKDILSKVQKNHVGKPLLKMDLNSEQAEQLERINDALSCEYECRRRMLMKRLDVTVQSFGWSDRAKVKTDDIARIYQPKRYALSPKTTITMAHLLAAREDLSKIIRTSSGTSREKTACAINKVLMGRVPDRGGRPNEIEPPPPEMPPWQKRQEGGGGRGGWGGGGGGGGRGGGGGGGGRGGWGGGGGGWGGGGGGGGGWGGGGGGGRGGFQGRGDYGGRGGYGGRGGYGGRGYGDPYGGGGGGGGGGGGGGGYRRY
# T1 sequence (Q9BVC5 whole entry partner): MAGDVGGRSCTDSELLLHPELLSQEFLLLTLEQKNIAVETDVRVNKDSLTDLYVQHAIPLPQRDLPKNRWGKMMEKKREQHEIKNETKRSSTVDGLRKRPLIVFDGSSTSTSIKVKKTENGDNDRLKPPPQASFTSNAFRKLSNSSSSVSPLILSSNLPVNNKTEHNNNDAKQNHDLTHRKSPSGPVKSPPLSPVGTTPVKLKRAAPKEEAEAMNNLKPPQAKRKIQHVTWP
# T1 sequence (Q9Y224 whole entry partner): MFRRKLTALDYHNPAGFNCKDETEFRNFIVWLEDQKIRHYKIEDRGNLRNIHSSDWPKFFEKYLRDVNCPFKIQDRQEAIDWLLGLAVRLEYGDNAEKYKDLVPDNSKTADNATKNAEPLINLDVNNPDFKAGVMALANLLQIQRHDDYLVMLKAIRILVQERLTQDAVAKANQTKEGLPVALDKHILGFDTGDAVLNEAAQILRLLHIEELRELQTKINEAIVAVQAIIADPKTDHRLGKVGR
molecule,measurement,setting,value
B1,RNA ligation activity of FLAG-RTCB,[1],Ligation only takes place with wild-type Archease
same,Stimulation of ligation of Xbp1 RNA minimal substrates by affinity purified human tRNA ligase complex,[2],strongly stimulated ligation

# — US9296994B2, “Archease as RNA ligaes complex member” (IMBA—INSTITUT FÜR MOLEKULARE BIOTECHNOLOGIE GMBH, priority 2012, dated 2016)
